Experimental data published in US20220332804A1 (CSL INNOVATION, published 2022).
Numbering of substitutions follows the chain as printed.

Columns and labels:
Assay in all cases: SPR, KD relative to WT C2;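 also: biacore SPR at 37 °C, anti-C2 mAbs captured via immobilised goat anti-human IgG, C2 alanine or serine surface mutants as analytes, 1:1 model fitted, double-referenced sensograms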
human C2 T483A = biological target: T1, human C2 T483A (human, UniProt P06681 21-752)
T1 sequence: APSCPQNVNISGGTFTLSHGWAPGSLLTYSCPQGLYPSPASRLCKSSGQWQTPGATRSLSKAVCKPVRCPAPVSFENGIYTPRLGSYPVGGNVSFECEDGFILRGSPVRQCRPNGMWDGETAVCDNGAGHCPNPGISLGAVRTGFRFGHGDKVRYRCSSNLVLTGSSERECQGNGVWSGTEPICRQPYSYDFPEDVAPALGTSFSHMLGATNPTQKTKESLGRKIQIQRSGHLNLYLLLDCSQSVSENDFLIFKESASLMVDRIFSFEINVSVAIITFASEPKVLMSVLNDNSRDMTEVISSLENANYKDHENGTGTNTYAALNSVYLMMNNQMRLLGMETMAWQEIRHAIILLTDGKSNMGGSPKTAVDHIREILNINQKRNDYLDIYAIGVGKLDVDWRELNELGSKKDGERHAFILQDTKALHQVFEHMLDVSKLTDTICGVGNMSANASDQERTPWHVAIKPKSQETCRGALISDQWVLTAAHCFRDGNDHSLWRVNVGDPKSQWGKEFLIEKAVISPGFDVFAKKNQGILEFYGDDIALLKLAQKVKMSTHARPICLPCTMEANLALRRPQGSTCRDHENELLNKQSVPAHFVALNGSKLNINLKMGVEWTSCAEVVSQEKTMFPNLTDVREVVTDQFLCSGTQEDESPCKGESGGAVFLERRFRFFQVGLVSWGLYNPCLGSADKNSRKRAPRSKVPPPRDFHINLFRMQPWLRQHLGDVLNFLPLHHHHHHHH

human C2 P486A = biological target: T2, human C2 P486A (human, UniProt P06681 21-752)
T2 sequence: T1 sequence with A463T, P466A

human C2 S720A = biological target: T3, human C2 S720A (human, UniProt P06681 21-752)
T3 sequence: T1 sequence with A463T, S700A

human C2 K721A = biological target: T4, human C2 K721A (human, UniProt P06681 21-752)
T4 sequence: T1 sequence with A463T, K701A

B1: RF16-226 (antibody, human IgG4 S228P, lambda)
heavy: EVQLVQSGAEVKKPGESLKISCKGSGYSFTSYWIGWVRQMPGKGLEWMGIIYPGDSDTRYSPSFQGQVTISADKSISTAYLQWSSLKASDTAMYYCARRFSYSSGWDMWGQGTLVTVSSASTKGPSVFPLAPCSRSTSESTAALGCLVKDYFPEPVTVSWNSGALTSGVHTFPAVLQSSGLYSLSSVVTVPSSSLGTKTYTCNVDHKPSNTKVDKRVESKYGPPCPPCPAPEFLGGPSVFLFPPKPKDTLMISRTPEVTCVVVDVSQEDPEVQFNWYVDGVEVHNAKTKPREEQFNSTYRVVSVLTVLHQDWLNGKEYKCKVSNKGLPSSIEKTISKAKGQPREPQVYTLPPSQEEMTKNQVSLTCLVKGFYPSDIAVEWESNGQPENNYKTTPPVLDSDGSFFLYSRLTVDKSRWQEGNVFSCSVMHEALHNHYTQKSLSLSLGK
light: SYELTQPPSVSVSPGQTARITCSGDALTSKYVAWYQQKSGLAPLLVIYEDTRRPSGIPAKFSGSSSGSVATLTISGAHGDDEADYYCYSTDASGHQRVFGGGTKLTVLSQPKAAPSVTLFPPSSEELQANKATLVCLISDFYPGAVTVAWKADGSPVKAGVETTKPSKQSNNKYAASSYLSLTPEQWKSHRSYSCQVTHEGSTVEKTVAPTECS
notes: pH-dependent anti-C2 antibody from a phage display library; also called WT
- Fold diff (human C2 T483A): 1 fold
- Fold diff (human C2 P486A): 1 fold
- Fold diff (human C2 S720A): 1 fold
- Fold diff (human C2 K721A): 10 fold
